Positions count from the first letter of the chain named.
B1: 369_G04 (antibody, V domains shown)
VH: EVQLLESGGGLVQPGGSLRLSCAASGFTFDSYSMNWVRQAPGKGLEWVSGINYNGGYTSYADSVKGRFTISRDNSKNTLYLQMNSLRAEDTAVYYCARSANWHDTALDYWGQGTLVTVSS
VL: DIQMTQSPSSLSASVGDRVTITCRASQSILTYVNWYQQKPGKAPKLLIYATTSRHSGVPSRFSGSGSGTDFTLTISSLQPEDFATYYCQQSYETPLTFGGGTKVEIK
B2: 369_G06 (antibody, V domains shown)
VH: B1 VH with S33G, S49A
VL: B1 VL with T31S, L47V, T51A, H55A, T94N
B3: 369_G11 (antibody, V domains shown)
VH: B1 VH with D30S, S49A, G50N, G55S, T58K, S59G
VL: B1 VL with V33L, T51A, R54L, H55A, T94S
B4: 369_G12 (antibody, V domains shown)
VH: B1 VH with D30S, S49A, G50N, S59G
VL: B1 VL with L47V, T51A, Y92D, E93N
B5: 369_H05 (antibody, V domains shown)
VH: B1 VH with D30S, S33G, S49A, G50N, S59G
VL: B1 VL with L30V, T31S, T51A, H55A, E93S, T94N
B6: 369_H06 (antibody, V domains shown)
VH: B1 VH with D30S, S33G, S49A, G50N, T58K
VL: B1 VL with L30V, T31S, T51A, H55A, E93D
B7: 369_H09 (antibody, V domains shown)
VH: B1 VH with S31D
VL: B1 VL with T31S, T51V, R54L, H55A, T94S
B8: 370_A01 (antibody, V domains shown)
VH: B1 VH with D30S, G55S, T58K
VL: B1 VL with L30S, V33L, L47V, T51A, H55A, E93N, T94L
B9: 370_A04 (antibody, V domains shown)
VH: B1 VH
VL: B1 VL with L30I, V33L, T51A, H55A, E93D, T94N
B10: 370_A12 (antibody, V domains shown)
VH: B1 VH with D30S, S33G, S49A
VL: B1 VL with V33L, T51A, R54L, H55A, E93D, T94S
B11: 370_C01 (antibody, V domains shown)
VH: B1 VH with G55S, S59G
VL: B1 VL with V33L, L47V, T51A, R54L, H55A, E93D
B12: 370_C03 (antibody, V domains shown)
VH: B1 VH with D30S, S33G, S49A, T58K, S59G
VL: B1 VL with V33L, A50Y, T51V, S53N, H55Q, E93S, T94S
B13: 370_C05 (antibody, V domains shown)
VH: B1 VH with D30S, S49A, G55S, S59G
VL: B1 VL with T31S, L47V, T51A, H55A, E93N, T94S
B14: 370_C08 (antibody, V domains shown)
VH: B1 VH with D30S, S33G, S49A, T58K, S59G
VL: B1 VL with L30S, T31N, V33L, T51V, H55A, E93D, T94S
B15: 370_C09 (antibody, V domains shown)
VH: B1 VH with S33G
VL: B1 VL with L30I, T31S, V33L, L47V, T51A, R54L, H55A, E93S
B16: 370_D04 (antibody, V domains shown)
VH: B1 VH with S49A, G50N, G55S, T58K, S59G
VL: B1 VL with V33L, L47V, T51A, H55A, E93D, T94N
B17: 370_D11 (antibody, V domains shown)
VH: B1 VH with S59G
VL: B1 VL with L30V, T31S, V33L, T51A, H55A, E93D
B18: 370_E03 (antibody, V domains shown)
VH: B1 VH with D30S, S33G, G50S, T58K, S59G
VL: B1 VL with V33L, L47V, A50Y, T51A, T52S, S53N, H55A, E93D, T94S
B19: 370_E06 (antibody, V domains shown)
VH: B1 VH with D30S, S33G, G55S, T58K
VL: B1 VL with T31S, V33L, L47V, R54L, H55A, E93D
B20: 370_E09 (antibody, V domains shown)
VH: B1 VH with S31D, Y32S, N35H, G50N, S59G, R98K
VL: B1 VL with T31S, L47V, T51A, H55A, T94L
B21: 370_F05 (antibody, V domains shown)
VH: B1 VH with D30S, S33G, G55S
VL: B1 VL with L30V, T31S, L47V, T51A, H55A
B22: 370_F07 (antibody, V domains shown)
VH: B1 VH with G50N, T58K, S59G
VL: B1 VL with T31S, V33L, T51A, H55A, E93N, T94L
B23: 370_F10 (antibody, V domains shown)
VH: B1 VH with D30S, S49A
VL: B1 VL with L30V, T31S, V33L, L47V, T51A, H55A, E93N, T94S
B24: 370_G02 (antibody, V domains shown)
VH: B1 VH with D30S, S31D, S49A, G50N, T58K, S59G
VL: B1 VL with L30V, T31S, V33L, T51A, E93D, T94S
B25: 370_G03 (antibody, V domains shown)
VH: B1 VH with D30S, S49A, G50N, S59G
VL: B1 VL with L47V, H55A, E93N, T94N
B26: 370_G06 (antibody, V domains shown)
VH: B1 VH with D30S, S31D, S33G, N35H, G50S
VL: B1 VL with T31S, L47V, T51A, H55A, Y92D, E93N

What follows are binders tested against T1, Human ACVR2A (human, UniProt P27037 20-135, limits assumed) (assay: ELISA).
T1 construct: also called activin receptor, type II A
T1 sequence (P27037 20-135 limits assumed): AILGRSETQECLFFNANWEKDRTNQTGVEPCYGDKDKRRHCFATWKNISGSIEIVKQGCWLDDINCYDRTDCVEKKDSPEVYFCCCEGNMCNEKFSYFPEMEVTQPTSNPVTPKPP
Method in brief: (§1)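 ELISA measured binding of ACVR2A-specific monoclonal antibodies to human and mouse ACVR2A. Biotinylated goat anti-human kappa light chain served as positive control and human Fc as negative control.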
Further: test concentration or dose not given here.

Binder | optical density
B1 | 2.37 OD
B2 | 2.98 OD
B3 | 3.03 OD
B4 | 1.77 OD
B5 | 3.25 OD
B6 | 3.23 OD
B7 | 2.36 OD
B8 | 2.86 OD
B9 | 2.57 OD
B10 | 3.06 OD
B11 | 3.29 OD
B12 | 3.59 OD
B13 | 3.21 OD
B14 | 2.73 OD
B15 | 1.97 OD
B16 | 3.59 OD
B17 | 2.72 OD
B18 | 3.64 OD
B19 | 2.9 OD
B20 | 3.45 OD
B21 | 2.76 OD
B22 | 3.45 OD
B23 | 3.15 OD
B24 | 2.98 OD
B25 | 3.1 OD
B26 | 2.19 OD

These binders were tested against Mouse ACVR2A (mouse, UniProt P27038 20-135, limits assumed) (assay: ELISA).
Chain of Mouse ACVR2A (P27038 20-135 limits assumed): as the sequence (P27037 20-135 limits assumed) above, with K20R, V73I counted along it
Method in brief: as §1

Binder | optical density
B1 | 2.69 OD
B2 | 2.91 OD
B3 | 3.06 OD
B4 | 1.88 OD
B5 | 3.34 OD
B6 | 3.56 OD
B7 | 2.64 OD
B8 | 2.96 OD
B9 | 2.74 OD
B10 | 3.19 OD
B11 | 3.38 OD
B12 | 3.77 OD
B13 | 3.55 OD
B14 | 2.97 OD
B15 | 2.25 OD
B16 | 3.74 OD
B17 | 2.79 OD
B18 | 3.74 OD
B19 | 3.02 OD
B20 | 3.56 OD
B21 | 2.91 OD
B22 | 3.53 OD
B23 | 3.22 OD
B24 | 3.22 OD
B25 | 3.44 OD
B26 | 2.33 OD

These binders were tested against T2, Goat anti-Human Kappa (assay: ELISA, positive control).
T2 construct: Positive control of the ELISA; also called biotinylated goat anti-human kappa light chain
Method in brief: as §1

Binder | optical density
B1 | 3.32 OD
B2 | 3.38 OD
B3 | 2.59 OD
B4 | 2.65 OD
B5 | 3.54 OD
B6 | 3.5 OD
B7 | 3.51 OD
B8 | 3.62 OD
B9 | 3.48 OD
B10 | 3.72 OD
B11 | 3.62 OD
B12 | 3.57 OD
B13 | 3.56 OD
B14 | 3.11 OD
B15 | 3.48 OD
B16 | 3.6 OD
B17 | 3.38 OD
B18 | 3.57 OD
B19 | 3.61 OD
B20 | 3.6 OD
B21 | 3.54 OD
B22 | 3.52 OD
B23 | 3.64 OD
B24 | 3.62 OD
B25 | 3.58 OD
B26 | 3.41 OD

— patent US20210380703A1 (RIGEL PHARMACEUTICALS, published 2021)
